# Measurements published in patent US20230110958A1 (Regeneron, published 2023).
# T1: murine IL27 receptor (IL27Ra and gp130) on mouse cells (MC9/STAT3-Luc reporter cells; splenic CD4+ T cells) (mouse, UniProt O70394 25-623; Q00560 23-917)
# T1 sequence (looked up) 1: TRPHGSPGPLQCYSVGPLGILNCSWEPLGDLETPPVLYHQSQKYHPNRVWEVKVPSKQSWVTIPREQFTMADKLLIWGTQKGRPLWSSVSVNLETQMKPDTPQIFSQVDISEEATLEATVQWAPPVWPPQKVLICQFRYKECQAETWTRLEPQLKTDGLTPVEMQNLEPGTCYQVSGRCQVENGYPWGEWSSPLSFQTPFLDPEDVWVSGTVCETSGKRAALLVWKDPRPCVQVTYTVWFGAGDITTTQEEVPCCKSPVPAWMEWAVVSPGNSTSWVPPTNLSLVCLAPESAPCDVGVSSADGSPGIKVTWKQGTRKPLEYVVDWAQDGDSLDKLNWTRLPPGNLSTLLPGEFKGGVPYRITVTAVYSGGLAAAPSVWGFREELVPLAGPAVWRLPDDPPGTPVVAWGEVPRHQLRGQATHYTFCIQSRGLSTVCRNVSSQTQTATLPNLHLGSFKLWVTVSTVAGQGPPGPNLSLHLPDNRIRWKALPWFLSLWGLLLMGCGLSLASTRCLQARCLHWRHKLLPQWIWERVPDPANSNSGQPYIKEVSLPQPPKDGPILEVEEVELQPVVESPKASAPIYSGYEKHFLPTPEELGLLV
# T1 sequence (looked up) 2: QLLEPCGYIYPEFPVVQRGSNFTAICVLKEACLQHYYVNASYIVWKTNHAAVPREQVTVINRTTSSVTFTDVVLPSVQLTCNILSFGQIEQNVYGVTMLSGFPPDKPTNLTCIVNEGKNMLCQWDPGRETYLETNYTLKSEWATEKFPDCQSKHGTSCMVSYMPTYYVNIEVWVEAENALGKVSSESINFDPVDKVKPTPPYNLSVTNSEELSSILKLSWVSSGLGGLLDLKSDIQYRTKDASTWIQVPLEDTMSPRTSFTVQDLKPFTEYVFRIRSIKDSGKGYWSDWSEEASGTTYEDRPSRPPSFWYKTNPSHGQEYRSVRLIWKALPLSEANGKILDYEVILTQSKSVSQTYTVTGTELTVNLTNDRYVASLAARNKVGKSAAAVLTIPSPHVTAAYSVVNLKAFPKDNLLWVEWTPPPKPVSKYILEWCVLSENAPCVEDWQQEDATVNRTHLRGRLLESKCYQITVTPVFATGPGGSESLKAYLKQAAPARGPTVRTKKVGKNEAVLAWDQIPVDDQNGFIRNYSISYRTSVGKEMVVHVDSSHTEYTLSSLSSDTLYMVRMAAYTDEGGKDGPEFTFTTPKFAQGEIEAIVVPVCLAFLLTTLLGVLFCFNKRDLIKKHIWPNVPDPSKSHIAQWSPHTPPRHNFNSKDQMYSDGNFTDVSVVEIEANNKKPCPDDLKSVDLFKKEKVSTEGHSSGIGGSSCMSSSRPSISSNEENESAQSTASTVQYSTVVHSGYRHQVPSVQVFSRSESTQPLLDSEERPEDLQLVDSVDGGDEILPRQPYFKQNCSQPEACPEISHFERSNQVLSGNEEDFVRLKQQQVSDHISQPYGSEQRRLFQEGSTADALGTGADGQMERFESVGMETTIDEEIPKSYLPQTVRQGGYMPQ
# B1: Recombinant human IL27 (R&D Systems cat# 2526-IL-010/CF), Human EBI3-…-Human p28-6-His tag (ligand)
# chain: RKGPPAALTLPRVQCRASRYPIAVDCSWTLPPAPNSTSPVSFIATYRLGMAARGHSWPCLQQTPTSTSCTITDVQLFSMAPYVLNVTAVHPWGSSSSFVPFITEHIIKPDPPEGVRLSPLAERQLQVQWEPPGSWPFPEIFSLKYWIRYKRQGAARFHRVGPIEATSFILRAVRPRARYYVQVAAQDLTDYGELSDWSLPATATMSLGKGSGSSRGGSGSGGSGGGGSKLAGVWGFPRPPGRPQLSLQELRREFTVSLHLARKLLSEVRGQAHRFAESHLPGVNLYLLPLGEQLPDVSLTFQAWRRLSDPERLCFISTTLQPFHALLGGLGTQGRWTNMERMQLWAMRLDLRDLQRHLRFQVLAAGFNLPEEEEEEEEEEEEERKGLLPGALGSALQGPAQVSWPQLLSTYRLLHSLELVLSRAVRELLLLSKAGHSVWPLGFPTLSPQPHHHHHH
# B2: IL27M1, Mouse EBI3-(GGGS)4-p28-(GGGGS)3-Fc (Fc fusion)
# chain: YTETALVALSQPRVQCHASRYPVAVDCSWTPLQAPNSTRSTSFIATYRLGVATQQQSQPCLQRSPQASRCTIPDVHLFSTVPYMLNVTAVHPGGASSSLLAFVAERIIKPDPPEGVRLRTAGQRLQVLWHPPASWPFPDIFSLKYRLRYRRRGASHFRQVGPIEATTFTLRNSKPHAKYCIQVSAQDLTDYGKPSDWSLPGQVESAPHKPGGGSGGGSGGGSGGGSFPTDPLSLQELRREFTVSLYLARKLLSEVQGYVHSFAESRLPGVNLDLLPLGYHLPNVSLTFQAWHHLSDSERLCFLATTLRPFPAMLGGLGTQGTWTSSEREQLWAMRLDLRDLHRHLRFQVLAAGFKCSKEEEDKEEEEEEEEEEKKLPLGALGGPNQVSSQVSWPQLLYTYQLLHSLELVLSRAVRDLLLLSLPRRPGSAWDSGGGGSGGGGSGGGGSESKYGPPCPPCPAPPVAGPSVFLFPPKPKDTLMISRTPEVTCVVVDVSQEDPEVQFNWYVDGVEVHNAKTKPREEQFNSTYRVVSVLTVLHQDWLNGKEYKCKVSNKGLPSSIEKTISKAKGQPREPQVYTLPPSQEEMTKNQVSLTCLVKGFYPSDIAVEWESNGQPENNYKTTPPVLDSDGSFFLYSRLTVDKSRWQEGNVFSCSVMHEALHNHYTQKSLSLSLGK
# B3: IL27M2, Mouse p28-(GGGGS)3-Fc (Knob) with Mouse EBI3-(GGGGS)3-Fc (Hole/star) (Fc fusion)
# chain 1: FPTDPLSLQELRREFTVSLYLARKLLSEVQGYVHSFAESRLPGVNLDLLPLGYHLPNVSLTFQAWHHLSDSERLCFLATTLRPFPAMLGGLGTQGTWTSSEREQLWAMRLDLRDLHRHLRFQVLAAGFKCSKEEEDKEEEEEEEEEEKKLPLGALGGPNQVSSQVSWPQLLYTYQLLHSLELVLSRAVRDLLLLSLPRRPGSAWDSGGGGSGGGGSGGGGSESKYGPPCPPCPAPPVAGPSVFLFPPKPKDTLMISRTPEVTCVVVDVSQEDPEVQFNWYVDGVEVHNAKTKPREEQFNSTYRVVSVLTVLHQDWLNGKEYKCKVSNKGLPSSIEKTISKAKGQPREPQVYTLPPSQEEMTKNQVSLWCLVKGFYPSDIAVEWESNGQPENNYKTTPPVLDSDGSFFLYSRLTVDKSRWQEGNVFSCSVMHEALHNHYTQKSLSLSLGK
# chain 2: YTETALVALSQPRVQCHASRYPVAVDCSWTPLQAPNSTRSTSFIATYRLGVATQQQSQPCLQRSPQASRCTIPDVHLFSTVPYMLNVTAVHPGGASSSLLAFVAERIIKPDPPEGVRLRTAGQRLQVLWHPPASWPFPDIFSLKYRLRYRRRGASHFRQVGPIEATTFTLRNSKPHAKYCIQVSAQDLTDYGKPSDWSLPGQVESAPHKPGGGGSGGGGSGGGGSESKYGPPCPPCPAPPVAGPSVFLFPPKPKDTLMISRTPEVTCVVVDVSQEDPEVQFNWYVDGVEVHNAKTKPREEQFNSTYRVVSVLTVLHQDWLNGKEYKCKVSNKGLPSSIEKTISKAKGQPREPQVYTLPPSQEEMTKNQVSLSCAVKGFYPSDIAVEWESNGQPENNYKTTPPVLDSDGSFFLVSRLTVDKSRWQEGNVFSCSVMHEALHNRFTQKSLSLSPGK
# How the values were obtained:
# Experiment in all cases: cell-based or functional assay
# [1] = target: human IL27 receptor (IL27Ra and gp130) on NCI-H929/GAS-Luc cells (human) (UniProt Q6UWB1)
# human IL27 receptor (IL27Ra and gp130) on NCI-H929/GAS-Luc cells (human), sequence (Q6UWB1 33-636, chain 1 of 2): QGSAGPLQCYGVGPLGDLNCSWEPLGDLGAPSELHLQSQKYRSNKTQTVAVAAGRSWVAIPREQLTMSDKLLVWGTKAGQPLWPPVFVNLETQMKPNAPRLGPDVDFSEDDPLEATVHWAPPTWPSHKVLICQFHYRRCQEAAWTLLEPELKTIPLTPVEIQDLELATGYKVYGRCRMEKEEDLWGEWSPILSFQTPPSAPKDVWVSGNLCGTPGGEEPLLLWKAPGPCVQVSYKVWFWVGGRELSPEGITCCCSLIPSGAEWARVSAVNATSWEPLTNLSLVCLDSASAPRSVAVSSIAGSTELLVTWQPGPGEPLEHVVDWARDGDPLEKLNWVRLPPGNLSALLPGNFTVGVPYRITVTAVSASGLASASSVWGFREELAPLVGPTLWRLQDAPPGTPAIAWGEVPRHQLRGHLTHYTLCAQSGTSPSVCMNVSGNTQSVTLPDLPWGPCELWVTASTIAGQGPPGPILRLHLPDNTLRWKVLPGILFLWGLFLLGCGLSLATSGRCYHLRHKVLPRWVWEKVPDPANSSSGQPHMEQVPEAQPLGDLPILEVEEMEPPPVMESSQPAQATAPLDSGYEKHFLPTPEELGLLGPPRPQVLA
# human IL27 receptor (IL27Ra and gp130) on NCI-H929/GAS-Luc cells (human), sequence (chain, as listed by the source, chain 2 of 2): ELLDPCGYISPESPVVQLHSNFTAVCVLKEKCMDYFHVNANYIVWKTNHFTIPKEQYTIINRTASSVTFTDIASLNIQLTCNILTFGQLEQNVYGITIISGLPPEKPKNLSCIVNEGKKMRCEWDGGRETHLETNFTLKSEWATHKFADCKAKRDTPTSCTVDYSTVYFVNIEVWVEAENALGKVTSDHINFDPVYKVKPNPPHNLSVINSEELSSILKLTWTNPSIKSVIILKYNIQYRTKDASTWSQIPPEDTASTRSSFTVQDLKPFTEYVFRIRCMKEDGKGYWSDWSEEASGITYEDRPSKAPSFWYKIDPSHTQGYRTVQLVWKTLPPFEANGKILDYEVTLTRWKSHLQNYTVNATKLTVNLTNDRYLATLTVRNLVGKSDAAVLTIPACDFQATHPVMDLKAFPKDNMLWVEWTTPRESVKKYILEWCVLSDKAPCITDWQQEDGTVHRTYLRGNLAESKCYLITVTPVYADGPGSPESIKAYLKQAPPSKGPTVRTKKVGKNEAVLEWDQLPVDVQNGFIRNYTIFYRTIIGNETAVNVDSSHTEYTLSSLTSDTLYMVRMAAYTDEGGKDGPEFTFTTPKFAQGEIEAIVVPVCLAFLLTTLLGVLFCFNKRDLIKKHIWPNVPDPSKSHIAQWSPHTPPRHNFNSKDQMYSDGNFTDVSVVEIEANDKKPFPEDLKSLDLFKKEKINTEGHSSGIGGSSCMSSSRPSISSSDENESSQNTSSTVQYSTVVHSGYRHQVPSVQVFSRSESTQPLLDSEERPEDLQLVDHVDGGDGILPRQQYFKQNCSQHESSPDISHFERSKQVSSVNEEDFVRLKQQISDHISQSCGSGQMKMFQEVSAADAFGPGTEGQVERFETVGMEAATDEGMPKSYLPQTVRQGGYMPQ
# [2] = target: T1, murine IL27 receptor (IL27Ra and gp130) …
# [3] = target: T1, murine IL27 receptor (IL27Ra and gp130) …; remark: listed apart in the source
Binder,"EC50 (M), GAS luciferase, NCI-H929/GAS-Luc cells [1] [M]","FOLD INDUCTION, GAS luciferase, NCI-H929/GAS-Luc cells [1] [fold]","EC50 (M), STAT3 luciferase, MC9 cells [2] [M]","FOLD INDUCTION, STAT3 luciferase, MC9 cells [2] [fold]","EC50, luciferase activity, MC9/STAT3-Luc reporter cells [3] [nM]","EC50, phosphorylation of STAT1 in CD4+ T-cells [3] [mg/L]"
B1,3.34e-10,12.3,–,–,–,–
B2,–,–,1.01e-09,2.95,~0.48,~2
B3,–,–,–,–,~0.0032,~0.0224
